# From patent CN112741804A (SHANGHAI JUNSHI BIOSCIENCES CO LTD; JUNMENG BIOSCIENCES CO …, dated 2021)
# Positions count from the first letter of the chain named.
# B1: JS003 (humanized anti-PD-L1 antibody, clone 30) (antibody, human IgG4 S228P, kappa, V domains shown)
# VH: QGQLQESGPSLVKPSQTLSLTCTVSGDSITRGYWNWIRKHPGKGLEYIGYISYTGSTYSNLSLKSRVTISRDTSKNQYYLKLSSVTAADTAVYYCATSTGWLDPVDYWGQGTLVTVSS
# VL: DIVMTQSPDSLAVSLGERATINCKASQNVDTSVAWFQQKPGQPPKALIYSASFRYSGVPDRFSGSGSGTDFTLTISSLQAEDVAVYFCQQYYGYPFTFGQGTKLEIKR
# notes: Full humanized antibody; Tested from formulation no; 30; also called 人源化抗体30; 抗体30
# B2: humanized anti-PD-L1 antibody 38 (clone 38) (antibody, V domains shown)
# VH: B1 VH with H40P
# VL: DIQMTQSPSSLSASVGDRVTITCRASQNVDTSVAWFQQKPGKAPKALIYSASFRYSGVPSRFSGSGSGTDFTLTISSLQPEDFATYFCQQYYGYPFTFGQGTKLEIK
# Target: T1, human PD-L1 (programmed death-ligand 1), soluble protein (human, UniProt Q9NZQ7 19-238, limits assumed)
# T1 construct: also called 人PD-L1; CD274
# Experiment: ELISA, PD-L1 coated on plate, HRP anti-human IgG detection
# T1 sequence (Q9NZQ7 19-238 limits assumed): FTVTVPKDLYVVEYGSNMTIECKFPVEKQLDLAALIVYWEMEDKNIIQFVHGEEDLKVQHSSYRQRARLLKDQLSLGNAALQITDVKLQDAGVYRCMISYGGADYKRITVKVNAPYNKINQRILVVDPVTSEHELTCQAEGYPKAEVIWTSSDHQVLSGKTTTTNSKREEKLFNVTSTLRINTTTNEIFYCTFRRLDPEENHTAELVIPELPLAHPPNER
row,Binder,EC50 [ng/mL]
1,B1,0.558
2,B2,0.837
